According to US10239923B2, “Specific amyloid beta binding peptides and the use of same for treating and diagnosing alzheimer's dementia” (Forschungszentrum Juelich GmbH, priority 2015, dated 2019):
Square brackets hold non-standard residues; d marks the D form.

What was measured:
[1] = test system: transgenic AD mice; conditions: oral administration in drinking water; cited from earlier work
[2] = molecular target: T1, Aβ1-42 monomers versus Aβ1-42 oligomers and fibrils (biotinylated, D-enantiomeric, immobilized) (Homo sapiens, UniProt P05067); assay: Monoclonal phage ELISA; assay type: binding; conditions: individual phage clones; species immobilized at 320 nM; absorption at 450 nm normalized with 6E10 control; higher = more monomer-specific
T1 construct: biotinylated, D-enantiomeric Aβ1-42 monomers
From the text: The specificity of the peptide results from the difference in % of the absorption values for the target molecule or the bait (for example A beta monomer) and the normalized absorption values for the competitors (for example A beta oligomers and fibrils) in the monoclonal phage ELISA.
The absorption values then constitute the affinity of individual phage clones for a particular immobilized A beta species. Here, the specificity is not dependent on the strength of the affinity, but instead only on the difference of the affinities between the species. […] The terms “competitors” and “target molecule” or “bait” are defined as specified below.
A method for normalizing the obtained values should therefore be performed. From all absorption values of the individual phage clone in the monoclonal phage ELISA, the values of the phage antibodies tested for cross-reaction can be used as background. This occurs in accordance with the previously immobilized species. The signal values of the phage antibody from the reaction trays with immobilized Aβ1-42 oligomers for this purpose can be removed from the signal values of the individual phage clone from the reaction trays with immobilized Aβ1-42 oligomers. A similar process is then carried out for Aβ1-42 monomers. In this way, a possible background signal of the phage antibody can initially be calculated from the signals of the individual phage clone. […] Only in this way is an equal interpretation of the results particularly in respect of the assessment of the specificity of the individual phage clone possible (see FIG. 2).
The affinity of individual phage clones with respect to the target molecule and the competitors was examined by means of ELISA. For this purpose, all three species were immobilized in biotinylated form on a polystyrene surface at streptavidin bound thereon. Since, during the panning rounds, oligomers and fibrils were added at the same time as competitors, these two species were immobilized in the monoclonal phage ELISA, likewise mixed. […] The streptavidin-coated microtiter plates were pre-washed as specified by the manufacturer. […] For immobilization, 100 μl were used per reaction tray and were incubated for 15 minutes at room temperature. After having washed the entire plate(s) twice with 150 μl 1×TBS per reaction tray, a blocking step with 150 μl 1×TBS/0.1% (v/v) Tween-20/1% (w/v) BSA was performed for an hour at room temperature. Three washing steps with 150 μl 1×TBS/0.1% (v/v) Tween-20 then followed per reaction tray. The amplified individual phage clones were mixed 1:1 with 1× TBS/1% (w/v) BSA. The antibody 6E10 was diluted 1:10,000 in 1×TBS/0.1% (v/v) Tween-20. […] After washing five times with 150 μl 1×TBS/0.1% (v/v) Tween-20 per reaction tray, 200 μl 1×TBS/0.1% (v/v) Tween-20 were placed in each reaction tray, and the plate(s) incubated for one hour at room temperature. The solutions were removed and replaced as follows: In all reaction trays that had been incubated previously with individual phage clone dilutions or the batch without phages, 100 μl of a phage antibody diluted 1:5,000 in 1×TBS/0.1% (v/v) Tween-20 were now added. The enzyme horseradish peroxidase (HRP) was coupled to this antibody and later served for the conversion of a substrate (TMB). […] At the same time, 100 μl of a second antibody diluted 1:1,000 in 1×TBS/0.1% (v/v) Tween-20 were now added to all reaction trays that had been previously incubated with the dilution of the 6E10 antibody, said second antibody being able to identify and bind to the 6E10 antibody originating from mice. This antibody is also HRP-coupled and thus allows a quantification of the binding of the first antibody to the immobilized target molecules or the plastics surface of the reaction tray. After one hour of incubation at room temperature, the plate(s) was/were washed 10 times with 150 μl 1×TBS/0.1% (v/v) Tween-20 per reaction tray. The signal was detected by adding the substrate 3,3′,5,5′-tetramethylbenzidine (TMB). […]

[3] = molecular target: Aβ1-42 (Homo sapiens, UniProt P05067); assay: ThT test, modulation of Aβ1-42 aggregation; assay type: biochemical; conditions: 10 μM Aβ1-42, equimolar peptide, versus Aβ1-42 alone = 100%
From the text: FIG. 3: The average relative fluorescence from seven independently performed ThT experiments with standard deviation is shown. The dye Thioflavin T (ThT) binds to β-pleated sheet structures in the batch and thereupon changes its fluorescence spectrum. […] The time in which the logarithmic rise of the fluorescence signal transitioned into a stationary phase was set to 100%.

[4] = molecular target: Aβ1-42 species of different size (Homo sapiens, UniProt P05067); assay: Density gradient centrifugation, tris-tricine SDS gel and silver staining of Aβ1-42 species; assay type: biochemical; conditions: 80 μM Aβ1-42 pre-incubated […], 40 μM peptide for 40 minutes
Description: The batch was then incubated either with or without addition of peptide for a further 40 minutes and was then placed on an iodixanol density gradient. The gradient was then centrifuged, wherein the contents of the sample (Aβ1-42 species of different size) diffused within the gradient in accordance with their size and shape. The gradient was fractionated after centrifugation into 15 fractions (1-15), and the first 14 individual fractions were applied to a tris-tricine SDS gel. The contents per fraction were separated electrophoretically. […] The batch was then incubated either without (A) or with addition of different concentrations of Mosd1 (B=10 μM Mossd1; C=20 μM Mosd1; D=40 μM Mosd1; E=80 μM Mosd1) for a further 40 minutes and was then placed on an iodixanol density gradient. The gradient was then centrifuged, wherein the contents of the sample (Aβ1-42 species of different size) diffused within the gradient in accordance with their size and shape. The gradient was fractionated after centrifugation (1-15), and the individual fractions were applied to a tris-tricine SDS gel. The contents per fraction were separated electrophoretically.

[5] = test system: PC-12 cells; assay: MTT reduction test, Aβ1-42-induced cell toxicity; assay type: cell-based; conditions: 0.1% TritonX-100, positive control for cell toxicity
Description: The samples were placed in the culture medium of the cells and were incubated over 24 hours with the cells at 37° C. The viability of the cells was then determined on the basis of an MTT test. Here, a metabolic reactant was supplied to the cells, which reactant could be converted by metabolically active cells (living cells). Formazan crystals are the product of this conversion and can be dissolved. The coloration of the medium after solubilization corresponds to the conversion rate of the reactant and therefore the viability of the cells. Untreated cells (medium, white chequered pattern) served as living control, and the proportion of vital cells was defined as 100%. The values of the other batches were normalized to this value.

Chain of Aβ1-42 species of different size (P05067 672-713 limits assumed): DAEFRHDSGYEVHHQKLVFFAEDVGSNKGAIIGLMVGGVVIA
T1 sequence (P05067 672-713): as the sequence (P05067 672-713 limits assumed) above
Chain of Aβ1-42 (P05067 672-713 limits assumed): as above

Row | Substance | cognitive capabilities [1] | plaques [1] | Difference in signal strength between Aβ1-42 monomers (100%) and Aβ1-42 oligomers and fibrils [2] [%] | relative ThT fluorescence (formation of β-pleated sheet structures) [3] | oligomeric Aβ1-42 species (fractions 4-7) [4] | proportions of high-molecular Aβ1-42 species (fractions 10-14) [4] | amount of viable cells (untreated cells = 100%) [5] [%]
1 | rprtrlhthrnr [Mosd D3] | significantly improved cognitive capabilities | much fewer plaques | – | – | – | – | –
2 | HTWTTYDYVWRL (H-[dH][dT][dW][dT][dT][dY][dD][dY][dV][dW][dR][dL]-NH2; SMILES CC(C)C[C@@H](NC(=O)[C@@H](CCCNC(=N)N)NC(=O)[C@@H](Cc1c[nH]c2ccccc12)NC(=O)[C@H](NC(=O)[C@@H](Cc1ccc(O)cc1)NC(=O)[C@@H](CC(=O)O)NC(=O)[C@@H](Cc1ccc(O)cc1)NC(=O)[C@H](NC(=O)[C@H](NC(=O)[C@@H](Cc1c[nH]c2ccccc12)NC(=O)[C@H](NC(=O)[C@H](N)Cc1c[nH]cn1)[C@H](C)O)[C@H](C)O)[C@H](C)O)C(C)C)C(N)=O) [Mosd2] | – | – | 67.145 | increase the ThT fluorescence | reduce | increase | –
3 | GTMLKFSGMNLT (H-G[dT][dM][dL][dK][dF][dS]G[dM][dN][dL][dT]-NH2; SMILES CSCC[C@@H](NC(=O)CNC(=O)[C@@H](CO)NC(=O)[C@@H](Cc1ccccc1)NC(=O)[C@@H](CCCCN)NC(=O)[C@@H](CC(C)C)NC(=O)[C@@H](CCSC)NC(=O)[C@H](NC(=O)CN)[C@H](C)O)C(=O)N[C@H](CC(N)=O)C(=O)N[C@H](CC(C)C)C(=O)N[C@@H](C(N)=O)[C@H](C)O) [Mosd3] | – | – | 59.955 | increase the ThT fluorescence | reduce | increase | –
4 | TritonX-100 [reference compound] | – | – | – | – | – | – | 1.5
